For assay [1], the target named is T1, cell surface Annexin A2 (ANXA2) on live cells (human, UniProt P07355 2-339, N-linked glycan (N-glycan-dependent epitope; its position is not shown by an experiment)).
T1 construct: Endogenous ANXA2 on live human cancer cell lines (IGROV1, MCF7 and others) and hESC; also called annexin 2
Briefly: flow cytometry on live IGROV1 cells. In general terms: A flow cytometer gives signals particle by particle.

Assay [2] addresses T1, cell surface Annexin A2 (ANXA2) on live …. Briefly: flow cytometry.

Three molecules from patent US20200399353A1 (AGENCY FOR SCIENCE TECHNOLOGY AND RESEARCH, published 2020) can be followed below.

T1 sequence (P07355 2-339 limits assumed): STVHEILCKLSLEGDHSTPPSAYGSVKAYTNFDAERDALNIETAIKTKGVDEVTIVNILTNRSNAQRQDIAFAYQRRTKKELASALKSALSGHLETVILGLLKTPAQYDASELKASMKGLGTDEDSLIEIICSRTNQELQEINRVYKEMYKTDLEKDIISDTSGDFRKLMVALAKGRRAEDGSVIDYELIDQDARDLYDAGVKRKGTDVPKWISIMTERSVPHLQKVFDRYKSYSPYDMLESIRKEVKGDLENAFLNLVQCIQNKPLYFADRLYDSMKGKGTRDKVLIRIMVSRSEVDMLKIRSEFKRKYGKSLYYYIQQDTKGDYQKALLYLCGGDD

B1: mAb 2448 (antibody, V domains shown)
VH: VQLQESGPDLVKPSRSLSLTCTVTGYSITSGYSWHWIRQFPGNKLEWMGYIHYSGSTKYNPSLKSRISITRDTSKNQFFLQLNSVTTEDAATYYCARGSNYGFDYWGQGTTLTVSS
VL: DIELTQSPSSLAVSVGEKVTMSCKSSQSLLYSNDQKNYLAWYQQKPGQSPKLLIYWASIRESGVPDRFTGSGSGTDFTLTISSVKAEDLAVYYCQQYYIYPLTFGAGTKLEIKR
For B1, the binding result in assay [1] was “binds”.

B2: Chimeric mAb ch2448 (antibody, V domains shown)
VH: VQLQESGPDLVKPSRSLSLTCTVTGYSITSGYSWHWIRQFPGNKLEWMGYIHYSGSTKYNPSLKSRISITRDTSKNQFFLQLNSVTTEDAATYYCARGSNYGFDYWGQGTTLTVSS
VL: DIELTQSPSSLAVSVGEKVTMSCKSSQSLLYSNDQKNYLAWYQQKPGQSPKLLIYWASIRESGVPDRFTGSGSGTDFTLTISSVKAEDLAVYYCQQYYIYPLTFGAGTKLEIKR
notes: also called wildtype chimeric mAb ch2448
For B2, the binding result in assay [2] is “binds”.

B3: Afucosylated ch2448 (antibody, V domains shown)
VH: VQLQESGPDLVKPSRSLSLTCTVTGYSITSGYSWHWIRQFPGNKLEWMGYIHYSGSTKYNPSLKSRISITRDTSKNQFFLQLNSVTTEDAATYYCARGSNYGFDYWGQGTTLTVSS
VL: DIELTQSPSSLAVSVGEKVTMSCKSSQSLLYSNDQKNYLAWYQQKPGQSPKLLIYWASIRESGVPDRFTGSGSGTDFTLTISSVKAEDLAVYYCQQYYIYPLTFGAGTKLEIKR
notes: also called aF-ch2448
Consider B3, for which the binding result in assay [2] was “binds”.
